{"source": "patent US20080219971A1", "about": "(VACCINEX, published 2008)", "binders": {"B1": {"name": "MAb 2218 (antibody, V domains shown)", "VH": "QVQLVQSGAEVKKPGSSVKVSCKASGYTFTDYYMDWVRQAPGQGLEWMGRVNPYHGGAVYNQKFKGRVTITADKSTSTAYMELSSLRSEDTAVYYCAREENSYDGYYGMDYWGQGTLVTVSS", "VL": "DIVMTQSPLSLPVSPGEPATINCKSSQSLFNSGNQKNYLAWYLQKPGQPPKLLIYGASTRESGVPDRFSGSGSGTDFTLTISSLQAEDVAVYYCQNDHTYPYTFGQGTKLEIK", "notes": "H1651 mutant VH combined with L284; also called H1651 T59V with L284"}, "B2": {"name": "MAb 2216 (antibody, V domains shown)", "VH": "QVQLVQSGAEVKKPGSSVKVSCKASGYTFTDYYMDWVRQAPGQGLEWMGRVNPYHGGAFYNQKFKGRVTITADKSTSTAYMELSSLRSEDTAVYYCAREENSYDGYYGMDYWGQGTLVTVSS", "VL": "DIVMTQSPLSLPVSPGEPATINCKSSQSLFNSGNQKNYLAWYLQKPGQPPKLLIYGASTRESGVPDRFSGSGSGTDFTLTISSLQAEDVAVYYCQNDHTYPYTFGQGTKLEIK", "notes": "H1651 mutant VH combined with L284; also called H1651 T59F with L284"}, "B3": {"name": "MAb 2224 (antibody, V domains shown)", "VH": "QVQLVQSGAEVKKPGSSVKVSCKASGYTFTDYYMDWVRQAPGQGLEWMGRVNPYHGGATPNQKFKGRVTITADKSTSTAYMELSSLRSEDTAVYYCAREENSYDGYYGMDYWGQGTLVTVSS", "VL": "DIVMTQSPLSLPVSPGEPATINCKSSQSLFNSGNQKNYLAWYLQKPGQPPKLLIYGASTRESGVPDRFSGSGSGTDFTLTISSLQAEDVAVYYCQNDHTYPYTFGQGTKLEIK", "notes": "H1651 mutant VH combined with L284; also called H1651 Y60P with L284"}, "B4": {"name": "MAb 1807 (antibody, human IgG4, V domains shown)", "VH": "QVQLVQSGAEVKKPGSSVKVSCKASGYTFTDYYMDWVRQAPGQGLEWIGRVNPYHGGATYNQKFKGKATITVDKSTSTAYMELSSLRSEDTAVYYCAREENSYDGYYGMDYWGQGTLVTVSS", "VL": "DIVMTQSPLSLPVSPGEPATINCKSSQSLFNSGNQKNYLAWYLQKPGQPPKLLIYGASTRESGVPDRFSGSGSGTDFTLTISSLQAEDVAVYYCQNDHTYPYTFGQGTKLEIK", "notes": "Humanized BD16, human IgG4; also called H1235/L284"}, "B5": {"name": "MAb 2206 (antibody, V domains shown)", "VH": "QVQLVQSGAEVKKPGSSVKVSCKASGYTFTDYYMDWVRQAPGQGLEWMGRVNPYHGWATYNQKFKGRVTITADKSTSTAYMELSSLRSEDTAVYYCAREENSYDGYYGMDYWGQGTLVTVSS", "VL": "DIVMTQSPLSLPVSPGEPATINCKSSQSLFNSGNQKNYLAWYLQKPGQPPKLLIYGASTRESGVPDRFSGSGSGTDFTLTISSLQAEDVAVYYCQNDHTYPYTFGQGTKLEIK", "notes": "H1651 mutant VH combined with L284; also called H1651 G57W with L284"}, "B6": {"name": "MAb 2207 (antibody, V domains shown)", "VH": "QVQLVQSGAEVKKPGSSVKVSCKASGYTFTDYYMDWVRQAPGQGLEWMGRVNPYHGYATYNQKFKGRVTITADKSTSTAYMELSSLRSEDTAVYYCAREENSYDGYYGMDYWGQGTLVTVSS", "VL": "DIVMTQSPLSLPVSPGEPATINCKSSQSLFNSGNQKNYLAWYLQKPGQPPKLLIYGASTRESGVPDRFSGSGSGTDFTLTISSLQAEDVAVYYCQNDHTYPYTFGQGTKLEIK", "notes": "H1651 mutant VH combined with L284; also called H1651 G57Y with L284"}, "B7": {"name": "MAb 2191 (antibody, V domains shown)", "VH": "QVQLVQSGAEVKKPGSSVKVSCTASGYTFTDYYMDWVRQAPGQGLEWMGRVNPYHGGATYNQKFKGRVTITADKSTSTAYMELSSLRSEDTAVYYCAREENSYTGYYGMDYWGQGTLVTVSS", "VL": "DIVMTQSPLSLPVSPGEPATINCKSSQSLFNSGNQKNYLAWYLQKPGQPPKLLIYGASTRESGVPDRFSGSGSGTDFTLTISSLQAEDVAVYYCQNDHTYPYTFGQGTKLEIK", "notes": "Double mutant of H1651 with L284; also called H1651 K23T D104T with L284"}}, "key": {"Human CD100 [1]": {"biological_target": "T1, Human CD100 (human, UniProt Q92854 22-734, limits assumed)", "T1 construct": "also called SEMA4D; Hu CD100", "T1 sequence (looked up)": "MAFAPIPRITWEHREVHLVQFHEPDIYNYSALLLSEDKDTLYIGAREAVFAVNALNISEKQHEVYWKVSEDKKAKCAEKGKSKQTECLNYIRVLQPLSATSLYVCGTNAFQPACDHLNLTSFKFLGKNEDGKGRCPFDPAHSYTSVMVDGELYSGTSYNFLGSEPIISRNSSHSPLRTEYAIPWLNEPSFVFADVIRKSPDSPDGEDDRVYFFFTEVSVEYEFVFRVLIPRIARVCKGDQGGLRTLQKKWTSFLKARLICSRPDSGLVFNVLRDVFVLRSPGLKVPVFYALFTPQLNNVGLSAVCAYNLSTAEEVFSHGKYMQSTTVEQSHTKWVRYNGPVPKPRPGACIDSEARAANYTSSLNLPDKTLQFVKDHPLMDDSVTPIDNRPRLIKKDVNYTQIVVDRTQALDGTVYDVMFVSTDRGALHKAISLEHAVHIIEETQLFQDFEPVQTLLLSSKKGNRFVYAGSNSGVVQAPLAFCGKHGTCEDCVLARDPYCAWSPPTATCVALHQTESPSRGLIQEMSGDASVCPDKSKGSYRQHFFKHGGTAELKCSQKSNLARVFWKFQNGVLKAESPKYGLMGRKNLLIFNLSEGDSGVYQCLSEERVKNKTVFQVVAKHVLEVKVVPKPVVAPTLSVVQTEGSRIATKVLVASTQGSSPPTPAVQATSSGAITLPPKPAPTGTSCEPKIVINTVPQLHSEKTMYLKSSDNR", "test": "affinity testing, method and unit not printed in Example 10 (nM as in Table 3)"}, "Human CD100 [2]": {"biological_target": "T1, Human CD100", "test": "affinity testing, method and unit not printed in Example 10 (nM as in Table 3); mutant value, before the parentheses"}, "Human CD100 [3]": {"biological_target": "T1, Human CD100", "test": "ELISA method of Friguet et al.; column head 'Affinity (nM) IC50 ELISA'; antigen not named", "experimental": "Antibody affinity was measured according to the ELISA method described in Friguet et al. (1985) J Immunol Methods 77(2):305-19."}, "BSA": {"biological_target": "T2, BSA (UniProt P02769 25-607)", "T2 construct": "Negative control antigen", "T2 sequence (P02769 25-607 limits assumed)": "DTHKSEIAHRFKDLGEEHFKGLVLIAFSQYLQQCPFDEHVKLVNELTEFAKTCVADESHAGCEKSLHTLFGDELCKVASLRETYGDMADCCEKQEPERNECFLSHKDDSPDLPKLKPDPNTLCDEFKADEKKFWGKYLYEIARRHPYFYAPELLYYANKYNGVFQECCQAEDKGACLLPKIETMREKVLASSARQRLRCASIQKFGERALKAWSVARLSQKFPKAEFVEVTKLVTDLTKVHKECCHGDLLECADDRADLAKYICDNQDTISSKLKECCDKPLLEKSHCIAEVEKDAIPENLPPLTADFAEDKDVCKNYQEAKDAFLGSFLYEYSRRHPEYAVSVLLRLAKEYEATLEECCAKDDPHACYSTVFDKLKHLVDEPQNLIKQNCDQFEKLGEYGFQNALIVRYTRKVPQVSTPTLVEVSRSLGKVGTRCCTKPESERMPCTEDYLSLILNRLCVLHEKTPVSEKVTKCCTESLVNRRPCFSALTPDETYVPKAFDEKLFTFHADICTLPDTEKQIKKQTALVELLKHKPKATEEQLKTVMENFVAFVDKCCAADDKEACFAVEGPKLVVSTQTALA", "test": "ELISA"}, "huErb2-Fc": {"biological_target": "T3, huErb2-Fc (human, UniProt P04626 23-652)", "T3 construct": "Negative control antigen; also called huErb2-Fc antigen", "test": "ELISA"}, "streptavidin": {"biological_target": "T4, streptavidin (UniProt P22629 37-163, limits assumed)", "T4 construct": "Negative control antigen", "T4 sequence (P22629 37-163 limits assumed)": "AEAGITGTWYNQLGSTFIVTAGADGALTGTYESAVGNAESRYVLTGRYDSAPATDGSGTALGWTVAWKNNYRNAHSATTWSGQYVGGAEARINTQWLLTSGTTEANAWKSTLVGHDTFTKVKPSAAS", "test": "ELISA"}, "human serum albumin": {"biological_target": "T5, human serum albumin (human, UniProt P02768 25-609)", "T5 construct": "Negative control antigen", "T5 sequence (P02768 25-609 limits assumed)": "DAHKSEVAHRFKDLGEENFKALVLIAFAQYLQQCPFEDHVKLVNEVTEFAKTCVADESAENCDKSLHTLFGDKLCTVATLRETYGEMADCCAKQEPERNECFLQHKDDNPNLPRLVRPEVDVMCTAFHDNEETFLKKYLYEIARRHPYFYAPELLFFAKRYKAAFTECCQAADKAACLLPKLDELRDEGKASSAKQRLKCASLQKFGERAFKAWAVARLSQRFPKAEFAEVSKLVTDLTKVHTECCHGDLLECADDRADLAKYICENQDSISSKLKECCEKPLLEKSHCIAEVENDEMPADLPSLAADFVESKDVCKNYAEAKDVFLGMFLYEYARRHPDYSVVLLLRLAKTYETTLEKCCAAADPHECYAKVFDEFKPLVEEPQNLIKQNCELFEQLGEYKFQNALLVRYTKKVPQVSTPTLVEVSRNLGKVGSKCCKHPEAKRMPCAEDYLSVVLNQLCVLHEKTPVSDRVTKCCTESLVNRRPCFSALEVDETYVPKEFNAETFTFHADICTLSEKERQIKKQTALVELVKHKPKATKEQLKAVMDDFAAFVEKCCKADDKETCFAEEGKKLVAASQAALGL", "test": "ELISA"}, "Human CD100 [4]": {"biological_target": "T1, Human CD100", "test": "affinity testing, method and unit not printed in Example 10 (nM as in Table 3); mutant value, before the parentheses", "remark": "listed apart in the source"}}}
{"binder": "B1", "values": [{"measurement": "Kd", "setting": "Human CD100 [1]", "value": 0.08, "unit": "nM"}]}
{"binder": "B2", "values": [{"measurement": "Kd", "setting": "Human CD100 [2]", "value": 0.06, "unit": "nM"}]}
{"binder": "B3", "values": [{"measurement": "Kd", "setting": "Human CD100 [1]", "value": 0.07, "unit": "nM"}]}
{"binder": "B4", "values": [{"measurement": "Kd", "setting": "Human CD100 [3]", "value": 0.12, "unit": "nM"}, {"measurement": "binding result", "setting": "BSA", "value": "no binding"}, {"measurement": "binding result", "setting": "huErb2-Fc", "value": "no binding"}, {"measurement": "binding result", "setting": "streptavidin", "value": "no binding"}, {"measurement": "binding result", "setting": "human serum albumin", "value": "no binding"}]}
{"binder": "B5", "values": [{"measurement": "Kd", "setting": "Human CD100 [1]", "value": 0.09, "unit": "nM"}]}
{"binder": "B6", "values": [{"measurement": "Kd", "setting": "Human CD100 [1]", "value": 0.06, "unit": "nM"}]}
{"binder": "B7", "values": [{"measurement": "Kd", "setting": "Human CD100 [4]", "value": 0.09, "unit": "nM"}]}
